Data: patent US20220323619A1 (TELIX INTERNATIONAL, published 2022)

Key:
[1] = target: T1, human FcγRI (Sino Biological, His-tagged) (human, UniProt P12314 16-288, limits assumed); assay: Biacore single cycle, His-tagged receptor captured on anti-His CM5 chip, antibody analyte; 1:1 kinetics
T1 construct: Bought product; also called FcgRI; not shown: His tag

[2] = target: T2, human FcγRIIa 167R (Sino Biological, His-tagged) (human, UniProt P12318 34-218, limits assumed); assay: Biacore single cycle, His-tagged receptor captured on anti-His CM5 chip, antibody analyte; steady state
T2 construct: not shown: His tag
T2 sequence (looked up): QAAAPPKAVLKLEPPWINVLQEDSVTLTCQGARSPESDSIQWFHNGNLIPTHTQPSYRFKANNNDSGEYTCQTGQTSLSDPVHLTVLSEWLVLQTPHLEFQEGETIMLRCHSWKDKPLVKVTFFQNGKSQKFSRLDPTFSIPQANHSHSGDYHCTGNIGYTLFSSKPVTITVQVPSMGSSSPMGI

[3] = target: T3, human FcγRIIa 167H (Sino Biological, His-tagged) (human, UniProt P12318 34-218, limits assumed); assay: as above
T3 construct: not shown: His tag
T3 sequence (looked up): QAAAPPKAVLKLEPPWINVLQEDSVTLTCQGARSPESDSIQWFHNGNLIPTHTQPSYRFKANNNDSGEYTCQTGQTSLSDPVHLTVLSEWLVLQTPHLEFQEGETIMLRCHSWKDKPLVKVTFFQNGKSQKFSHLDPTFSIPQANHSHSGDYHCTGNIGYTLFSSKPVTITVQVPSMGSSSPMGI

[4] = target: T4, human FcγRIIb (Sino Biological, His-tagged) (human, UniProt P31994 43-217, limits assumed); assay: as above
T4 construct: not shown: His tag
T4 sequence (looked up): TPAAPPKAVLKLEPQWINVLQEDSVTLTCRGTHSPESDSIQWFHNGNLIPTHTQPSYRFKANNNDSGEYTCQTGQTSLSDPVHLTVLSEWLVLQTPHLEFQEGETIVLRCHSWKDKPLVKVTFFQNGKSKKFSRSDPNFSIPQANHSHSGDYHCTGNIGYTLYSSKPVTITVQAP

[5] = target: T5, human FcγRIIIa 176F (Sino Biological, His-tagged) (human, UniProt P08637 17-208); assay: as above
T5 construct: not shown: His tag
T5 sequence (P08637 17-208 limits assumed): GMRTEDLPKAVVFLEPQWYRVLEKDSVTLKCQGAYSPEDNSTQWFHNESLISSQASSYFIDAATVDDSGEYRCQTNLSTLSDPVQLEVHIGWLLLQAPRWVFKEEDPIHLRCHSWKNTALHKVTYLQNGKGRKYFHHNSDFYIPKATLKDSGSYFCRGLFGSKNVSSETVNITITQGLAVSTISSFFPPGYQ

[6] = target: T6, human FcγRIIIa 176V (Sino Biological, His-tagged) (human, UniProt P08637 17-208); assay: as above
T6 construct: not shown: His tag
T6 sequence (P08637 17-208 F176V limits assumed): as the sequence (P08637 17-208 limits assumed) above, with F160V counted along it

[7] = target: T7, human FcγRIIIb (Sino Biological, His-tagged) (human, UniProt O75015 17-200, limits assumed); assay: as above
T7 construct: not shown: His tag
T7 sequence (O75015 17-200 limits assumed): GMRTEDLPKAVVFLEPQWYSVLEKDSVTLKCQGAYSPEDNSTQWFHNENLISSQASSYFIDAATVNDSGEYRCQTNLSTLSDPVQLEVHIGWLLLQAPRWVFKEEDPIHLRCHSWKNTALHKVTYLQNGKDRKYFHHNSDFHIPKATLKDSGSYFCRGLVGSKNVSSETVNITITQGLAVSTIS

[8] = target: T8, prostate-specific membrane antigen (PSMA) (R&D Systems) (UniProt Q04609 44-750); assay: Biacore multi-cycle kinetics, antibody captured on Protein G chip, PSMA analyte 1.5625-25 nM
T8 construct: Soluble analyte in the Biacore assay
T8 sequence (Q04609 44-750 limits assumed): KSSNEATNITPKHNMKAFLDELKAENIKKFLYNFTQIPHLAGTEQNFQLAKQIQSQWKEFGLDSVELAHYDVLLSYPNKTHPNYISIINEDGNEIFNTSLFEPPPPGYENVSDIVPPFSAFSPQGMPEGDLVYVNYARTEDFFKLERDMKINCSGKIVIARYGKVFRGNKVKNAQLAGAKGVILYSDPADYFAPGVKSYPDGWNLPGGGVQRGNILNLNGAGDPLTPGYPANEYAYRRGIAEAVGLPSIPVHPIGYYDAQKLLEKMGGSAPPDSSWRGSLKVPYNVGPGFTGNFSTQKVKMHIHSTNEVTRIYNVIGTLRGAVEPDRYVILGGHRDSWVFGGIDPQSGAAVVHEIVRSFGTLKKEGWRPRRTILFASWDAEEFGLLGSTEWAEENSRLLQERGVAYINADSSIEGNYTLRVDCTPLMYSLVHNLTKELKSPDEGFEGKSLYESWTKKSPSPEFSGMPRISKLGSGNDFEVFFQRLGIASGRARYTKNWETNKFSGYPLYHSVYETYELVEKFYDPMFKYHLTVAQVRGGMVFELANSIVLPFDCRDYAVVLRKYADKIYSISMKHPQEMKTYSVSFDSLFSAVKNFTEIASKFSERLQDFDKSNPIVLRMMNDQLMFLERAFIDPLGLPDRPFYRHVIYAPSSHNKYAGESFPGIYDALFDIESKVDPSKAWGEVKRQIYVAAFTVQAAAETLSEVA

Measured: binding result

T1 sequence (P12314 16-288 limits assumed): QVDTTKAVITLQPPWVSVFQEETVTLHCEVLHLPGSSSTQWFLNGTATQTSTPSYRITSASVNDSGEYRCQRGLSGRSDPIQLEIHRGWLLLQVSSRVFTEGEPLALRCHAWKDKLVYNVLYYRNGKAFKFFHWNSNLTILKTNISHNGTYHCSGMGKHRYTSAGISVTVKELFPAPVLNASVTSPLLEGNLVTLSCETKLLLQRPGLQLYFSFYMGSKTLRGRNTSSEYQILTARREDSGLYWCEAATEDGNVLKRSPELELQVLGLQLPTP

B1: ANT4044 IgG1 (H310A, H435Q) (antibody)
heavy: not shown
light: DIQMTQSPSTLSASVGDRVTITCKASQDVGTAVDWYQQKPGQAPKLLIYWASTRHTGVPDRFSGSGSGTDFTLTISRLQPEDFAVYYCQQYNSYPLTFGQGTKVDIKRTVAAPSVFIFPPSDEQLKSGTASVVCLLNNFYPREAKVQWKVDNALQSGNSQESVTEQDSKDSTYSLSSTLTLSKADYEKHKVYACEVTHQGLSSPVTKSFNRGEC
notes: also called ANT4044-IgG1-2M; ANT4044-FcRn
not listed: [8]
binds: all other assays above

B2: ANT4044-A2 IgG1 (antibody)
heavy: not shown
light: DIQMTQSPSTLSASVGDRVTITCKASQDVGTAVDWYQQKPGQAPKLLIYWASTRHTGVPDRFSGSGSGTDFTLTISRLQPEDFAVYYCQQYNSYPLTFGQGTKVDIKRTVAAPSVFIFPPSDEQLKSGTASVVCLLNNFYPREAKVQWKVDNALQSGNSQESVTEQDSKDSTYSLSSTLTLSKADYEKHKVYACEVTHQGLSSPVTKSFNRGEC
notes: also called ANT4044-A2 expressed as unmodified IgG1
binds: [8]

B3: ANT4044-A2 IgG4 (S228P, L235E, H310A, H435Q) (antibody)
heavy: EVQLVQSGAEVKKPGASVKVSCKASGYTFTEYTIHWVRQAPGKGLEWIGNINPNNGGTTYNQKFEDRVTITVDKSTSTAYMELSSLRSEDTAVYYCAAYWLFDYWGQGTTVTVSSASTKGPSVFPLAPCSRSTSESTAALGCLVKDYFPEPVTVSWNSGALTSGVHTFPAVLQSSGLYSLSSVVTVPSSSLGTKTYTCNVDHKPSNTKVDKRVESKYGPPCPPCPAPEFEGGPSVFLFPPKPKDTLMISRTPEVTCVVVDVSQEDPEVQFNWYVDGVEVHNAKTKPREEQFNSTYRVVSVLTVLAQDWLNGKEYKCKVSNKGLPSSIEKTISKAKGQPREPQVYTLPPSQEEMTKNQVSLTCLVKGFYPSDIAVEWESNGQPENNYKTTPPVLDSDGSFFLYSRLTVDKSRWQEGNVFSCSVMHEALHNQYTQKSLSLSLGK
light: DIQMTQSPSTLSASVGDRVTITCKASQDVGTAVDWYQQKPGQAPKLLIYWASTRHTGVPDRFSGSGSGTDFTLTISRLQPEDFAVYYCQQYNSYPLTFGQGTKVDIKRTVAAPSVFIFPPSDEQLKSGTASVVCLLNNFYPREAKVQWKVDNALQSGNSQESVTEQDSKDSTYSLSSTLTLSKADYEKHKVYACEVTHQGLSSPVTKSFNRGEC
notes: also called ANT4044-A2 RADmAb IgG4
binds: [8]

B4: ANT4044-A2 IgG1 (H310A, H435Q) (antibody)
heavy: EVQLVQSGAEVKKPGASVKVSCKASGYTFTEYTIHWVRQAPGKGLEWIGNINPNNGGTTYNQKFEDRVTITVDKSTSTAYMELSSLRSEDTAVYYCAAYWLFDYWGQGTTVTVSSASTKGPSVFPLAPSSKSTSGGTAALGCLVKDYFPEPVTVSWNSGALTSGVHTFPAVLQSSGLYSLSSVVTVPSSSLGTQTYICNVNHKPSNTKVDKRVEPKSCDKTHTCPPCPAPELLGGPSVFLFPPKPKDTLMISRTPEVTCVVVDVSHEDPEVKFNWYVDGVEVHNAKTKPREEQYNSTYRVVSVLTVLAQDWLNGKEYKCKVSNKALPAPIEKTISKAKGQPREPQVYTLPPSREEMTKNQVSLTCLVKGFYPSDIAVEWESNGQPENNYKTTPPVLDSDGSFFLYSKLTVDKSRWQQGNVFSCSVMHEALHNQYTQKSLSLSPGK
light: DIQMTQSPSTLSASVGDRVTITCKASQDVGTAVDWYQQKPGQAPKLLIYWASTRHTGVPDRFSGSGSGTDFTLTISRLQPEDFAVYYCQQYNSYPLTFGQGTKVDIKRTVAAPSVFIFPPSDEQLKSGTASVVCLLNNFYPREAKVQWKVDNALQSGNSQESVTEQDSKDSTYSLSSTLTLSKADYEKHKVYACEVTHQGLSSPVTKSFNRGEC
notes: also called ANT4044-A2 RADmAb IgG1
binds: all assays above
